Changes are numbered by the printed parent chain.
B1: rat anti-GPR20 antibody 04-079 (antibody, rat IgG2b, V domains shown)
VH: QVQLQQSGAELAKPGSSVKISCKASGYTFTSYYITWIKQTTGQGLKYIGYINPGSGHTNYNEKFKGKATLTVDKSSSTAFMQLSSLTPDDSAVYYCARGAGGFLRIISKFDYWGQGVMVTVSS
VL: DTVLTQSPALAVSLGQRVTISCRASKSVSTYMHWYQQRSGQQPKLLIYSASNLESGVPSRFSGSGSGTDFTLTIDPVKADDITNYYCQQSNELPYTFGAGTKLELKR
notes: Rat IgG2b, kappa; also called 04-079 antibody
B2: rat anti-GPR20 antibody 04-046 (antibody, rat IgG2b)
heavy: QVQLQQSGAELAKPGSSVKISCKASGYTFTSYYISWIKQTTGQGLKYIGFINPGSGHTNYNEKFKGKATLTVDKSSSTAFMQLSSLTPDDSAIYYCARGAGGFLRIITKFDYWGQGVMVTVSSAQTTAPSVYPLAPGCGDTTSSTVTLGCLVKGYFPEPVTVTWNSGALSSDVHTFPAVLQSGLYTLTSSVTSSTWPSQTVTCNVAHPASSTKVDKKVERRNGGIGHKCPTCPTCHKCPVPELLGGPSVFIFPPKPKDILLISQNAKVTCVVVDVSEEEPDVQFSWFVNNVEVHTAQTQPREEQYNSTFRVVSALPIQHQDWMSGKEFKCKVNNKALPSPIEKTISKPKGLVRKPQVYVMGPPTEQLTEQTVSLTCLTSGFLPNDIGVEWTSNGHIEKNYKNTEPVMDSDGSFFMYSKLNVERSRWDSRAPFVCSVVHEGLHNHHVEKSISRPPGK
light: DTVLTQSPALAVSLGQRVTISCRASKSVSTYIHWYQQRSGQQPKLLIYSASNLESGVPSRFSGSGSGTDFTLTIDPVEPDDIANYYCQQINELPYTFGAGTKLELKRADAAPTVSIFPPSTEQLATGGASVVCLMNNFYPRDISVKWKIDGTERRDGVLDSVTDQDSKDSTYSMSSTLSLTKADYESHNLYTCEVVHKTSSSPVVKSFNRNEC
notes: Rat IgG2b, kappa; also called 04-046 antibody
B3: rat anti-GPR20 antibody 04-126 (antibody, rat IgG2b, V domains shown)
VH: B1 VH with Q5R, T35I, I37M, T41A, K46Q, I48V, A100T
VL: B1 VL with N52T, K78E, T83A
notes: Rat IgG2b, kappa; also called 04-126 antibody; 04-0126
B4: antibody-drug conjugate (1) 046Ch-ADC2 (antibody, human IgG1)
heavy: not shown
light: DTVLTQSPALAVSLGQRVTISCRASKSVSTYIHWYQQRSGQQPKLLIYSASNLESGVPSRFSGSGSGTDFTLTIDPVEPDDIANYYCQQINELPYTFGAGTKLELKRAVAAPSVFIFPPSDEQLKSGTASVVCLLNNFYPREAKVQWKVDNALQSGNSQESVTEQDSKDSTYSLSSTLTLSKADYEKHKVYACEVTHQGLSSPVTKSFNRGEC
modifications: ADC2 exatecan drug linker on the interchain-disulfide cysteine, thioether bond; position not given; ADC2 exatecan drug linker (maleimide-PEG2-GGFG-NH-CH2CH2CH2-C(=O)-(NH-DX)) on cysteine sulfhydryls of reduced interchain disulfides, thioether bond; positions not given
notes: average drug number per antibody 5.6 (procedure E)
B5: antibody-drug conjugate (2) 046Ch-ADC1 (antibody, human IgG1)
heavy: not shown
light: B4 light
modifications: ADC1 exatecan drug linker on the interchain-disulfide cysteine, thioether bond; position not given; ADC1 exatecan drug linker (maleimidocaproyl-GGFG-NH-CH2-O-CH2-C(=O)-(NH-DX)) on cysteine sulfhydryls of reduced interchain disulfides, thioether bond; positions not given
notes: as for B4
B6: antibody-drug conjugate (12) h046-H10/L6-ADC1 (antibody, human IgG1, kappa, V domains shown)
VH: B1 VH with I20V, T35S, Y50F, F80N, V93I, S108T
VL: DTQLTQSPSSLSASVGDRVTITCRASKSVSTYIHWYQQKPGKQPKLLIYSASDRESGVPSRFSGSGSGTDFTLTISSLQPEDFANYYCQQINELPYTFGQGTKVEIKR
modifications: ADC1 exatecan drug linker on the interchain-disulfide cysteine, thioether bond; position not given; ADC1 exatecan drug linker (maleimidocaproyl-GGFG-NH-CH2-O-CH2-C(=O)-(NH-DX)) on cysteine sulfhydryls of reduced interchain disulfides, thioether bond; positions not given
notes: average drug number 5.5 (E) / 8.0 (F)
B7: humanized h046-H10/L6 (antibody, human IgG1, kappa, V domains shown)
VH: B1 VH with I20V, T35S, Y50F, F80N, V93I, S108T
VL: B6 VL
notes: the claims and summary say 20 to 474
B8: humanized h046-H4b/L7 (antibody, human IgG1, kappa)
heavy: not shown
light: DTQLTQSPSSLSASVGDRVTITCRASKSVSTYIHWYQQKPGKQPKLLIYSAGNLESGVPSRFSGSGSGTDFTLTISSLQPEDFANYYCQQINELPYTFGQGTKVEIKRTVAAPSVFIFPPSDEQLKSGTASVVCLLNNFYPREAKVQWKVDNALQSGNSQESVTEQDSKDSTYSLSSTLTLSKADYEKHKVYACEVTHQGLSSPVTKSFNRGEC
notes: Humanized IgG1 / kappa
B9: antibody-drug conjugate (7) h046-H4b/L7-ADC2 (antibody, human IgG1, kappa)
heavy: not shown
light: B8 light
modifications: ADC2 exatecan drug linker on the interchain-disulfide cysteine, thioether bond; position not given; ADC2 exatecan drug linker (maleimide-PEG2-GGFG-NH-CH2CH2CH2-C(=O)-(NH-DX)) on cysteine sulfhydryls of reduced interchain disulfides, thioether bond; positions not given
notes: average drug number 6.1 (E) / 7.6 (F)
B10: antibody-drug conjugate h046-H4b/L7-ADC1 (antibody, human IgG1, kappa)
heavy: not shown
light: B8 light
modifications: ADC1 exatecan drug linker on the interchain-disulfide cysteine, thioether bond; position not given; ADC1 exatecan drug linker (maleimidocaproyl-GGFG-NH-CH2-O-CH2-C(=O)-(NH-DX)) on cysteine sulfhydryls of reduced interchain disulfides, thioether bond; positions not given
notes: also called antibody-drug conjugate (3); antibody-drug conjugate (4)
B11: humanized h046-H5b/L2 (antibody, human IgG1, kappa, V domains shown)
VH: QVQLVQSGAEVKKPGASVKVSCKASGYTFTSYYISWIRQAPGQGLKYMGFINPGSGHTNYNEKFKGRVTITADKSSSTANMELSSLRSEDTAVYYCARGAGGFLRIITKFDYWGQGTLVTVSS
VL: B6 VL with T2I, L4M, D53N, R54L, N85T
notes: Humanized IgG1 / kappa
B12: humanized h046-H4e/L7 (antibody, human IgG1, kappa)
heavy: not shown
light: B8 light
notes: Humanized IgG1 / kappa
B13: antibody-drug conjugate (5) h046-H5b/L2-ADC1 (antibody, human IgG1, kappa, V domains shown)
VH: B11 VH
VL: B6 VL with T2I, L4M, D53N, R54L, N85T
modifications: ADC1 exatecan drug linker on the interchain-disulfide cysteine, thioether bond; position not given; ADC1 exatecan drug linker (maleimidocaproyl-GGFG-NH-CH2-O-CH2-C(=O)-(NH-DX)) on cysteine sulfhydryls of reduced interchain disulfides, thioether bond; positions not given
notes: average drug number 5.4 (E) / 7.9 (F)
B14: antibody-drug conjugate h046-H4e/L7-ADC1 (antibody, human IgG1, kappa)
heavy: not shown
light: B8 light
modifications: ADC1 exatecan drug linker on the interchain-disulfide cysteine, thioether bond; position not given; ADC1 exatecan drug linker (maleimidocaproyl-GGFG-NH-CH2-O-CH2-C(=O)-(NH-DX)) on cysteine sulfhydryls of reduced interchain disulfides, thioether bond; positions not given
notes: also called antibody-drug conjugate (13); antibody-drug conjugate (14)
B15: antibody-drug conjugate (8) h046-H5b/L2-ADC2 (antibody, human IgG1, kappa, V domains shown)
VH: B11 VH
VL: B6 VL with T2I, L4M, D53N, R54L, N85T
modifications: ADC2 exatecan drug linker on the interchain-disulfide cysteine, thioether bond; position not given; ADC2 exatecan drug linker (maleimide-PEG2-GGFG-NH-CH2CH2CH2-C(=O)-(NH-DX)) on cysteine sulfhydryls of reduced interchain disulfides, thioether bond; positions not given
notes: average drug number 6.0 (E) / 7.7 (F)

molecular target: T1, human GPR20 (human, UniProt Q99678 1-358); experiment: cell-based or functional assay
T1 sequence (Q99678 whole entry): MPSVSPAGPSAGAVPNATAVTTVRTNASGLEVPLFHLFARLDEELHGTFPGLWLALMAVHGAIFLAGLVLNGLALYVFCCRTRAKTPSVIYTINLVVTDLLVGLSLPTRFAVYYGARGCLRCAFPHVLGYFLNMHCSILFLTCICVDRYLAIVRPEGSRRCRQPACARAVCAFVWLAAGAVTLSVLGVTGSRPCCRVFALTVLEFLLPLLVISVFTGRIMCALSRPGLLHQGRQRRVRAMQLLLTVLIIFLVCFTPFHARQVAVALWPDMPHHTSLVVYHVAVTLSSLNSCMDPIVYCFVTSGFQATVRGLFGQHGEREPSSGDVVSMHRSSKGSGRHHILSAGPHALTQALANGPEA

Row | Binder | cell proliferation suppression rate (Rat-ZAP internalization screening) [%]
1 | B1 | ≥ 60
2 | B2 | ≥ 60
3 | B3 | ≥ 60

molecular target: GPR20-EGFP protein comprising human GPR20 linked at its C-terminus to EGFP (human, UniProt Q99678 1-358); experiment: cell-based or functional assay
Sequence (Q99678 whole entry): as above

Row | Binder | Cell survival rate (%) in internalization activity evaluation [%]
4 | B1 | 62
5 | B2 | 57
6 | B3 | 54

molecular target: T2, mouse GPR20 (mouse, UniProt Q8BYC4 1-358); experiment: Cell-ELISA on 293a cells transiently expressing mouse GPR20
T2 construct: whole, on cells; also called mGPR20; mouse GPR20 (NP_775541)
Procedure: (§1) The cells were left standing at 4° C. for 1 hour. […] The cells were left standing at 4° C. for 1 hour. The cells in the wells were washed three times with PBS (+) supplemented with 5% FBS, and thereafter, OPD chromogenic solution (which had been prepared by dissolving o-phenylenediamine dihydrochloride (Wako Pure Chemical Industries, Ltd.) and H₂O₂ in an OPD solution (0.05 M trisodium citrate, 0.1 M disodium hydrogen phosphate 12-water; pH 4.5), so that the substances became 0.4 mg/ml and 0.6% (v/v), respectively) was added in an amount of 100 μL/well to the wells. A coloring reaction was carried out with occasional stirring. Thereafter, 1 M HCl was added to the plate (100 μL/well) to terminate the coloring reaction, followed by measurement of the absorbance at 490 nm using a plate reader (ENVISION: PerkinElmer, Inc.).

T2 sequence (Q8BYC4 whole entry): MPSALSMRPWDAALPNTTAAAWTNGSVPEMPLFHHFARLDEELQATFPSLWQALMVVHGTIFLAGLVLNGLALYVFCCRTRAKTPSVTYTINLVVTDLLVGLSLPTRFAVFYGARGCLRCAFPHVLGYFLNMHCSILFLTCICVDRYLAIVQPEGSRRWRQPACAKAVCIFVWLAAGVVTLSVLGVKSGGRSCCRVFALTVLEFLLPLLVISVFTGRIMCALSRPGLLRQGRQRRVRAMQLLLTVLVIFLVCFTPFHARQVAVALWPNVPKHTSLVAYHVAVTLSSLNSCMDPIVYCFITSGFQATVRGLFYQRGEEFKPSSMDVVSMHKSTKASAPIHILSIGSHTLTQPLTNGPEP

Row | Binder | binding result
7 | B1 | no binding
8 | B2 | no binding
9 | B3 | no binding

molecular target: T3, human/mouse chimeric GPR20 in which EC2 of human GPR20 was substituted with EC2 of mouse GPR20 (human, UniProt Q99678 1-358); experiment: Cell-ELISA on 293a cells transiently expressing hGPR20_mECD2
T3 construct: also called hGPR20_mECD2
Procedure: as §1

T3 sequence (Q99678 other isoform, or with tags, fused parts or gaps mutant): as the sequence (Q99678 whole entry) above, with Y113F counted along it

Row | Binder | binding result
10 | B1 | no binding
11 | B2 | no binding
12 | B3 | no binding

molecular target: T1, human GPR20; experiment: flow cytometry on 293T cells transfected with pcDNA3.1-hGPR20
Procedure: The cells were cultured overnight under conditions of 37° C. and 5% CO₂, and thereafter, a cell suspension was prepared. To the obtained cell suspension, each humanized anti-GPR20 antibody was added, and the obtained mixture was left standing at 4° C. for 1 hour. […] The cells were left standing at 4° C. for 1 hour. The cells were washed twice with PBS supplemented with 5% FBS, and then re-suspended in PBS supplemented with 5% FBS, followed by detection using a flow cytometer (BD FACSCant II; BD Biosciences). The data was analyzed using Flowjo (Tree Star, Inc.). […] In the histograms of FIG. 24, the abscissa depicts the fluorescence intensity of PE indicating the amount of the antibody bound, and the ordinate depicts a cell count.

Row | Binder | binding result
13 | B4 | binds
14 | B5 | binds
15 | B6 | binds
16 | B7 | binds
17 | B8 | binds
18 | B9 | binds
19 | B10 | binds
20 | B11 | binds
21 | B12 | binds
22 | B13 | binds
23 | B14 | binds
24 | B15 | binds

From patent publication US20190225686A1 (Daiichi Sankyo, published 2019)
